How the values were obtained:
LnmP PCP (holo-form) = target: T1, LnmP PCP (holo-form)
T1 chain: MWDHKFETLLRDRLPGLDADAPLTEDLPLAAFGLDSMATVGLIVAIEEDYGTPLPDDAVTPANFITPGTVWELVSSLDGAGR

B1: LnmG (protein)
chain: MVALVFPGQGSQRKGMGADLFARFPDLTRQADTVLGHSVEELCRSSGDGRLDRTEYAQPALFVVSALSYLARDPGLPQPTLLAGHSLGEYGALFAAGCFDFATGVRLVRERGALMGRAQGGGMLAVLGVDGDEVQALLAGTGARQVDVANYNTPTQTVLSGPLDELRMVSAALGQRPGVRCVPVRVSAAFHSRHMRPAAQEFATFLTGFSFADPHRTVISSVTARPYGAGQVAELLSRQIESPVRWSETMAYLRERGTTELEEMGPGKVLTGLWKQGRADGAKARAVAPAPVAVVAGVPAAAAARAPASPAPVAARAATAAPARPSDPAPPAPRTAPSPASPVPPASVSRGQRAEELGSAEFRQDYGIRYAYLAGAMFRGIASAELVIRMGRAGLMGFFGAGGLGLDKVESALVRIKDALGPDGRYGMNLLHSIDDPAYEHAVVDLCLKHGVHDVEAAGFTQLTPAVVQFRFSGAHRDAAGRAVAVRRVLAKVSRPEVAAAFMAPAPAAILRRLTADGRLTPQEAEIAAELPVGQDICVEADSGGHTDGGAALTLLPSMIRHRDAAMARHGYGRRIRIGAAGGIGAPEAVAAAFVLGADFVLTGSVNQCSPEAGTSDAVKDILAGLDVQDTAYAPAGDMFEIGARVQVVRKGTLFAARGNKLYQLYRSHDSWESIDAGTRRSVEETYFKRPFAEVWEETRAYHLGRGRDAEIEKADRLPKHRMALAFRWYFARSVRWGLEGEPTQKVNYQIQCGPAIGAFNHVVRGTGLEDWRHRHVDLIAEHLMTGAADVLARR
loading of the [2-14C]malonyl group onto the holo-PCP (SDS-PAGE and phosphor imaging, 5 min) (LnmP PCP (holo-form)): no loading was observed for the LnmP PCP (FIG. 13C, lane 9)
loading of the [2-14C]malonyl group onto the holo-ACP (SDS-PAGE and phosphor imaging, 5 min) (LnmJ-ACP5 (holo-form)): six of the seven ACPs were efficiently loaded with the malonyl group (FIG. 13C, lanes 2-4 and 6-8)
loading of the [2-14C]malonyl group onto the tridomain protein (9% SDS-PAGE and phosphor imaging) (apo-LnmJ-(DH-ACP-KR)): no loading was observed with the apo-LnmJ-(DH-ACP-KR) protein (lane 2)
loading of the [2-14C]malonyl group onto the holo-ACP (SDS-PAGE and phosphor imaging, 5 min) (LnmI-ACP3 (holo-form)): six of the seven ACPs were efficiently loaded with the malonyl group (FIG. 13C, lanes 2-4 and 6-8)
loading of the [2-14C]malonyl group onto the holo-ACP (SDS-PAGE and phosphor imaging, 5 min) (LnmJ-ACP7 (holo-form)): six of the seven ACPs were efficiently loaded with the malonyl group (FIG. 13C, lanes 2-4 and 6-8)
loading of the [2-14C]malonyl group onto the tridomain protein (9% SDS-PAGE and phosphor imaging, 2 to 60 min) (holo-LnmJ-(DH-ACP-KR)): LnmG efficiently loaded the malonyl group to holo-LnmJ-(DH-ACP-KR) (lanes 3-6)
loading of the [2-14C]malonyl group onto the holo-ACP (SDS-PAGE and phosphor imaging, 5 min) (LnmJ-ACP8 (holo-form)): six of the seven ACPs were efficiently loaded with the malonyl group (FIG. 13C, lanes 2-4 and 6-8)
loading of the [2-14C]malonyl group onto the holo-ACP (SDS-PAGE and phosphor imaging, 5 min) (LnmJ-ACP6-2 (holo-form)): six of the seven ACPs were efficiently loaded with the malonyl group (FIG. 13C, lanes 2-4 and 6-8)
malonyl loading of the two ACPs of PKS module 6 in vitro (LnmJ-ACP6-2 (holo-form)): LnmG prefers ACP6-2 in vitro
loading of the [2-14C]malonyl group onto the holo-ACP (SDS-PAGE and phosphor imaging, 5 min) (LnmJ-ACP6-1 (holo-form)): with ACP6-1 being loaded less efficiently (FIG. 13C, lane 5)
loading of the [2-14C]malonyl group onto the holo-ACP (SDS-PAGE and phosphor imaging, 5 min) (LnmJ-ACP4 (holo-form)): six of the seven ACPs were efficiently loaded with the malonyl group (FIG. 13C, lanes 2-4 and 6-8)

— patent US20030175888
